In the supplement of paper PMC10567573:

B1: MLL5 (parent)
chain: DCMGIDRQHIPDTYLCERCQPRNL
B2: ZBTB22 (parent)
chain: AVLAASSPYFHDQVLLKGMTSISL

Variants of: B1
Experiment: protein stability index of a GFP-peptide fusion (GPS, HEK-293T) (PSI 1-6); higher = more stable
Settings: c terminus: a fixed tail appended
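Further: lentivirally expressed fusions sorted by FACS into six bins by GFP to DsRed ratio, PSI derived from sequencing read proportions per bin multiplied by bin number.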

Protein stability index of substitutions, site by site:
R22: Y 2.49; Q 3.19; S 3.31; L 3.31; T 3.34; P 3.34; E 3.98; C 3.66; K 3.19; F 2.35; D 3.42; M 1.86; A 3.57; V 2.67; N 2.94; H 2.72; W 1.99; I 2.9; G 3.28
L24: G 3.73; I 2.36; E 3.44; F 2.71; C 3.24; H 2.91; T 3.14; V 2.84; A 3.55; R 2.62; N 3.26; Y 2.86; P 2.64; S 3.84; W 2.77; M 2.69; D 3.88; K 4.2; Q 3.51
R18: V 2.19; T 3.15; W 2.25; Y 2.23; S 3.12
N23: A 2.09; Y 1.94; G 3; F 2.58; R 1.53; P 3.1; M 2.83; D 3.08; C 1.85; V 2; E 2.86; L 2.5; Q 2.62; W 2.49; I 2.29; T 2.61; H 2.36; K 2.73; S 3.07
C19: Y 2.8; D 4.73; R 4.24; G 3.63; I 3.02; S 3.85; A 4.26; F 3.14; L 3.43; E 4.12; N 4.06; V 2.65; T 4.09; K 3.67; W 2.63; H 3.7; P 4.55; M 1.98; Q 3.88
P21: E 4; T 2.95; M 3.62; G 3.45; W 1.7; H 2.76; F 2.49; I 2.5; D 4.21; K 3.53; N 3.21; S 2.93; R 3.4; L 3.61; Q 3.93; Y 2.88; V 2.48; C 3.21; A 3.58
Q20: I 2.55; G 2.79; W 2.27; V 2.79; E 3.21; P 3.24; L 1.99; F 2.37; C 2.69; M 3.26; K 2.68; A 2.81; D 4.22; S 3.03; Y 2.94; N 3.33; T 3.53; H 2.8

Variants of: B2
Experiment: as above
Settings: c terminus: a fixed tail appended

Protein stability index: each site, then its substitutions
A1: C 3.85; Y 2.9; M 2.57; H 4.3; E 4.15; Q 2.39; I 2.99; T 4.21; K 3.83; N 2.3
L3: K 1.64; T 2.38; Q 1.93; C 2.92; P 3.11; H 2.22; M 3.26; N 2.38; I 3.32; R 1.45; E 2.04; S 1.45; A 2.48
L16: C 3.99; D 1.93; F 2.47; M 3.83; N 2.37; Y 3.11; P 2.27; S 2.26; W 2.44; Q 2.32; G 2.28; K 3
Q13: H 2.48; D 3.61; V 2.02; P 1.64; L 1.43; M 2.94; G 2.15; A 3.38; T 3.86; I 4.9; F 3; K 1.92
A5: E 1.55; T 3.75
